Experimental data published in patent US20260201008A1, “SECRETIN-DERIVED GLP1R SELECTIVE AGONISTS” (GUBRA A/S, priority 2023, published 2026).
Square brackets hold non-standard residues; d marks the D form. Ends that are not written are not given here. Aib = CC(C)(N)C(=O)O

Assays:
[1] = target: human secretin receptor (hSCTR) (human, UniProt P47872 23-440); assay: cell-based or functional assay
[2] = target: human GLP-1 receptor (hGLP1R) (human, UniProt P43220 24-463); assay: cell-based or functional assay

Chain of human secretin receptor (hSCTR) (P47872 23-440): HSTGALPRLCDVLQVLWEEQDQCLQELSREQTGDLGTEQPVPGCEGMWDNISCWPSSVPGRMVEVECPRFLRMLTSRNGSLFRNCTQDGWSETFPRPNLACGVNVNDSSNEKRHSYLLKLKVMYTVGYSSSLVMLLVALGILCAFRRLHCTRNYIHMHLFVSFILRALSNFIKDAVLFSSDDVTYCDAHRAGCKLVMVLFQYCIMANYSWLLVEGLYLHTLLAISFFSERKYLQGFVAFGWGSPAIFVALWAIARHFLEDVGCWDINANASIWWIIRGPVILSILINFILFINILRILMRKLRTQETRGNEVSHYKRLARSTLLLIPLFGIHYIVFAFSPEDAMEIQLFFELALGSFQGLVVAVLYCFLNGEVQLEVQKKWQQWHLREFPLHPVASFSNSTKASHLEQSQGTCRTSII

Row | Binder | pEC50 hSCTR [1] | pEC50 hGLPR1 [2]
1 | H[Aib]EGTFTSDPSGLLEGAALQRFIQWLV-NH2 (N-terminus assumed; SMILES CC[C@H](C)[C@H](NC(=O)[C@H](Cc1ccccc1)NC(=O)[C@H](CCCNC(=N)N)NC(=O)[C@H](CCC(N)=O)NC(=O)[C@H](CC(C)C)NC(=O)[C@H](C)NC(=O)[C@H](C)NC(=O)CNC(=O)[C@H](CCC(=O)O)NC(=O)[C@H](CC(C)C)NC(=O)[C@H](CC(C)C)NC(=O)CNC(=O)[C@H](CO)NC(=O)[C@@H]1CCCN1C(=O)[C@H](CC(=O)O)NC(=O)[C@H](CO)NC(=O)[C@@H](NC(=O)[C@H](Cc1ccccc1)NC(=O)[C@@H](NC(=O)CNC(=O)[C@H](CCC(=O)O)NC(=O)C(C)(C)NC(=O)[C@@H](N)Cc1c[nH]cn1)[C@@H](C)O)[C@@H](C)O)C(=O)N[C@@H](CCC(N)=O)C(=O)N[C@@H](Cc1c[nH]c2ccccc12)C(=O)N[C@@H](CC(C)C)C(=O)N[C@H](C(N)=O)C(C)C) [SEQ ID NO: 123] | 5.2 -log M | 8 -log M
2 | H[Aib]EGTFTSDPSELLEGAALQRFIQWLV-NH2 (N-terminus assumed; SMILES CC[C@H](C)[C@H](NC(=O)[C@H](Cc1ccccc1)NC(=O)[C@H](CCCNC(=N)N)NC(=O)[C@H](CCC(N)=O)NC(=O)[C@H](CC(C)C)NC(=O)[C@H](C)NC(=O)[C@H](C)NC(=O)CNC(=O)[C@H](CCC(=O)O)NC(=O)[C@H](CC(C)C)NC(=O)[C@H](CC(C)C)NC(=O)[C@H](CCC(=O)O)NC(=O)[C@H](CO)NC(=O)[C@@H]1CCCN1C(=O)[C@H](CC(=O)O)NC(=O)[C@H](CO)NC(=O)[C@@H](NC(=O)[C@H](Cc1ccccc1)NC(=O)[C@@H](NC(=O)CNC(=O)[C@H](CCC(=O)O)NC(=O)C(C)(C)NC(=O)[C@@H](N)Cc1c[nH]cn1)[C@@H](C)O)[C@@H](C)O)C(=O)N[C@@H](CCC(N)=O)C(=O)N[C@@H](Cc1c[nH]c2ccccc12)C(=O)N[C@@H](CC(C)C)C(=O)N[C@H](C(N)=O)C(C)C) [SEQ ID NO: 122] | 5.3 -log M | 8.2 -log M

Other lines, results leading:

Row | pEC50 hSCTR [1] | pEC50 hGLPR1 [2] | Binder
3 | 4.4 -log M | 8.6 -log M | H[Aib]EGTFTSDPSYLKEEA[Aib]LQRFLEHLV-NH2 (not fully specified (residue 14)) [SEQ ID NO: 121]
4 | 6.7 -log M | 10.3 -log M | H[Aib]EGTFTSDISGLLEGAALQRFIQWLV-NH2 (N-terminus assumed; SMILES CC[C@H](C)[C@H](NC(=O)[C@H](CC(=O)O)NC(=O)[C@H](CO)NC(=O)[C@@H](NC(=O)[C@H](Cc1ccccc1)NC(=O)[C@@H](NC(=O)CNC(=O)[C@H](CCC(=O)O)NC(=O)C(C)(C)NC(=O)[C@@H](N)Cc1c[nH]cn1)[C@@H](C)O)[C@@H](C)O)C(=O)N[C@@H](CO)C(=O)NCC(=O)N[C@@H](CC(C)C)C(=O)N[C@@H](CC(C)C)C(=O)N[C@@H](CCC(=O)O)C(=O)NCC(=O)N[C@@H](C)C(=O)N[C@@H](C)C(=O)N[C@@H](CC(C)C)C(=O)N[C@@H](CCC(N)=O)C(=O)N[C@@H](CCCNC(=N)N)C(=O)N[C@@H](Cc1ccccc1)C(=O)N[C@H](C(=O)N[C@@H](CCC(N)=O)C(=O)N[C@@H](Cc1c[nH]c2ccccc12)C(=O)N[C@@H](CC(C)C)C(=O)N[C@H](C(N)=O)C(C)C)[C@@H](C)CC) [SEQ ID NO: 120]
